Test [1] addresses T1, human plasma kallikrein (human, UniProt P03952 20-390; P03952 391-638). The experiment in a line: cell-based or functional assay.
Test [2] deals with T1, human plasma kallikrein. The experiment in a line: cell-based or functional assay. This is another data set of the same source.
Test [3] deals with T2, human FcRn (Sino Biological, Cat. No. CT009-H08H) (human, UniProt P55899 24-297; P61769 21-119).
T2 construct: Coupled to the Biacore chip; also called hFcRn
As to the kind of experiment: SPR, Biacore T200, human FcRn on the chip, pH 6.0. For orientation: Surface plasmon resonance follows binding to a sensor surface in real time, without labels.

The target in test [4] is T1, human plasma kallikrein. The experiment in a line: cell-based or functional assay. The source holds these as a separate data set.
The target of test [5] is T3, human prekallikrein (human, UniProt P03952 20-638).
T3 construct: Zymogen form
As to the kind of experiment: SPR, 37 C, 50 mM HEPES, 150 mM NaCl, 0.1 mM Ca++, 1 mg/ml BSA, 0.02% tween-20, pH 6.0.

In test [6] the target is T1, human plasma kallikrein. The description is as above.
Test [7] has as its target T1, human plasma kallikrein. As to the kind of experiment: SPR, 37° C.; reference: human prekallikrein.
Test [8] concerns the target rabbit plasma kallikrein (rabbit). As to the kind of experiment: cell-based or functional assay.
In test [9] the target is cynomolgus monkey plasma kallikrein (cynomolgus monkey, UniProt P03952 20-638 (human entry), limits assumed). As to the kind of experiment: cell-based or functional assay.
Test [10] addresses rat plasma kallikrein (rat, UniProt P14272 20-638, limits assumed). As to the kind of experiment: cell-based or functional assay.
For test [11], the target named is T1, human plasma kallikrein. As to the kind of experiment: cell-based or functional assay. This is another data set of the same source.
For test [12], the target named is T1, human plasma kallikrein. As to the kind of experiment: SPR, pH 7.4, 37° C.
Test [13] addresses T1, human plasma kallikrein. The experiment in a line: cell-based or functional assay. This is another data set of the same source.
Test [14] has as its target T1, human plasma kallikrein. As to the kind of experiment: SPR, pH 6.0, 37° C.; pH 6.0, 37° C.
The target of test [15] is T3, human prekallikrein. The experiment in a line: SPR, 37 C, 50 mM HEPES, 150 mM NaCl, 1.3 mM Ca++, 1 mg/ml BSA, 0.02% tween-20, pH 7.4.
In test [16] the target is T2, human FcRn (Sino Biological, Cat. No. …). The experiment in a line: SPR, Biacore T200, human FcRn on the chip, pH 6.0; pH 6.0; hFcRn on the chip.
Test [17] addresses T3, human prekallikrein. The experiment in a line: SPR, 37 C, 50 mM HEPES, 150 mM NaCl, 0.1 mM Ca++, 1 mg/ml BSA, 0.02% tween-20, pH 6.0 (this table has no pH labels; lower row taken as pH 6.0 as in the labelled table beside it).
Test [18] deals with T1, human plasma kallikrein. The experiment in a line: SPR, pH 7.4, 37° C.; pH 7.4, 37° C.
Test [19] has as its target T1, human plasma kallikrein. As to the kind of experiment: SPR, 37 C, 50 mM HEPES, 150 mM NaCl, 0.1 mM Ca++, 1 mg/ml BSA, 0.02% tween-20, pH 6.0 (this table has no pH labels; lower row taken as pH 6.0 as in the labelled tables beside it).
In test [20] the target is T3, human prekallikrein. As to the kind of experiment: SPR, 37 C, 50 mM HEPES, 150 mM NaCl, 1.3 mM Ca++, 1 mg/ml BSA, 0.02% tween-20, pH 7.4 (this table has no pH labels; upper row taken as pH 7.4 as in the labelled table beside it).
For test [21], the target named is T2, human FcRn (Sino Biological, Cat. No. …).
The target in test [22] is T1, human plasma kallikrein. The experiment in a line: SPR, 37 C, 50 mM HEPES, 150 mM NaCl, 1.3 mM Ca++, 1 mg/ml BSA, 0.02% tween-20, pH 7.4 (this table has no pH labels; upper row taken as pH 7.4 as in the labelled tables beside it).
The target of test [23] is T1, human plasma kallikrein. The experiment in a line: SPR, pH 6.0, 37° C.
The target of test [24] is T1, human plasma kallikrein. As to the kind of experiment: SPR, 37° C., pH 6 against pH 7.4.
For test [25], the target named is trypsin, human pancrease (Cat #16-19-032000, Athens Research and Technology Inc) (human). As to the kind of experiment: cell-based or functional assay.

Where two headings read alike, the source gives them in different places. Bounds are passed on as bounds.

T2 sequence (P55899 24-297 limits assumed, chain 1 of 2): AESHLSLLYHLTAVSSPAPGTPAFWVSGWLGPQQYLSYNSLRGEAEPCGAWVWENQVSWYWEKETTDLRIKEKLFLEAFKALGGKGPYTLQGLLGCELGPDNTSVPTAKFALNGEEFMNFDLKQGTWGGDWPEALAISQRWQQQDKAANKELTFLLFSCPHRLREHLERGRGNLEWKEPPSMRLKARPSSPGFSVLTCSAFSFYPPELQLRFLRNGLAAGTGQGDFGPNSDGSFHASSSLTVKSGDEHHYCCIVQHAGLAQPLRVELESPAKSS
T2 sequence (P61769 21-119 limits assumed, chain 2 of 2): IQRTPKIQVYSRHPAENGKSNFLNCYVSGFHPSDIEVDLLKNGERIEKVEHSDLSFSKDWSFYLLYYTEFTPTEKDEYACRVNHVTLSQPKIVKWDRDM
T3 sequence (P03952 20-638 limits assumed): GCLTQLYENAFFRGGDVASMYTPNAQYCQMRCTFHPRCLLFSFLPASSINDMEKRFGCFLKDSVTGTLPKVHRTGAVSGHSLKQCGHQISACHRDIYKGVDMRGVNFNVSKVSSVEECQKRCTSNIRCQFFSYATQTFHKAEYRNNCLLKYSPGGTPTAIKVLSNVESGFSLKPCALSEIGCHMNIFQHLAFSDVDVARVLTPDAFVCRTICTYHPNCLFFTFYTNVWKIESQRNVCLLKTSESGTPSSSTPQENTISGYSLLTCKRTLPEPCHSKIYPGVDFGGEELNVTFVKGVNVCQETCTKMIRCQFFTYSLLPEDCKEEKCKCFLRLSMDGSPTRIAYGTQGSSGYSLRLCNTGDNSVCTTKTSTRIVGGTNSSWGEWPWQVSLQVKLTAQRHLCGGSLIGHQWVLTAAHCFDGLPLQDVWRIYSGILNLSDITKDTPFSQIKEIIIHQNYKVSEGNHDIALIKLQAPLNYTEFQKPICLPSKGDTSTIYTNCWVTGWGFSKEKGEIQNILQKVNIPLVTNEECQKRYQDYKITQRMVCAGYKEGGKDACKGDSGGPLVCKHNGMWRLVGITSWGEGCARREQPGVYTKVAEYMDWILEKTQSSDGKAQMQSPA
T1 sequence (P03952 20-390 S143N limits assumed, chain 1 of 2): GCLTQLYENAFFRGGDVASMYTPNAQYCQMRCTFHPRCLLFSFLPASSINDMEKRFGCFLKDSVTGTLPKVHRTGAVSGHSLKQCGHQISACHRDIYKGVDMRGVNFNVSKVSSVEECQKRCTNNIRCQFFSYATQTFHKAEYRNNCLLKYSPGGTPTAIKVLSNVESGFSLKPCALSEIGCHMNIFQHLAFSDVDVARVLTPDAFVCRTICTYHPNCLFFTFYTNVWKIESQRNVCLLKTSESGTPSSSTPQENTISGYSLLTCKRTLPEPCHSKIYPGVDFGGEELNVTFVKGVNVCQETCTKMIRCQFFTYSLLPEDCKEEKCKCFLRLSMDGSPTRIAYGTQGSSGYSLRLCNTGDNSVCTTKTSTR
T1 sequence (P03952 391-638 limits assumed, chain 2 of 2): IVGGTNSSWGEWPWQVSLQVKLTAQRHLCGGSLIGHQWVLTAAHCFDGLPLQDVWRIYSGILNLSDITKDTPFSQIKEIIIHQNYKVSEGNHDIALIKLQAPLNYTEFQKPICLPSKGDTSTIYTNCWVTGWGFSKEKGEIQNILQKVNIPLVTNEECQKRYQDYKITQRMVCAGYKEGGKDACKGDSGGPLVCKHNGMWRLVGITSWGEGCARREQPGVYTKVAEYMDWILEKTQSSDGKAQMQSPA
cynomolgus monkey plasma kallikrein, sequence (P03952 other isoform, or with tags, fused parts or gaps limits assumed): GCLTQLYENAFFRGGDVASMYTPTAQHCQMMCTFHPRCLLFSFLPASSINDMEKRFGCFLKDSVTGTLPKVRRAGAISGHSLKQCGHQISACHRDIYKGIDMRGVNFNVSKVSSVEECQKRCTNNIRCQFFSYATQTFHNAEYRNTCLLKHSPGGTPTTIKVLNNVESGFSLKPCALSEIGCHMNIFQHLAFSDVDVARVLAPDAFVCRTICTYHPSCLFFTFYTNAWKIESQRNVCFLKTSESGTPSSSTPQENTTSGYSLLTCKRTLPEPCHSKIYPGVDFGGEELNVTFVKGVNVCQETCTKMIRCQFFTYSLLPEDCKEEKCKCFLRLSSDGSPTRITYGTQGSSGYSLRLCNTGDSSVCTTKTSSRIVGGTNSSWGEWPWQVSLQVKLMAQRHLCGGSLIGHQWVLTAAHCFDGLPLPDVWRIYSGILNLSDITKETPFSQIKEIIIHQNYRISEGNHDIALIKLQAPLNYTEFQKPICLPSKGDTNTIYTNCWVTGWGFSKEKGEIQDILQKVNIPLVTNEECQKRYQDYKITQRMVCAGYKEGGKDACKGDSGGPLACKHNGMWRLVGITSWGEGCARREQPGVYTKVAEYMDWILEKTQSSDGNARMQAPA
rabbit plasma kallikrein (rabbit), sequence (chain, as listed by the source limits assumed): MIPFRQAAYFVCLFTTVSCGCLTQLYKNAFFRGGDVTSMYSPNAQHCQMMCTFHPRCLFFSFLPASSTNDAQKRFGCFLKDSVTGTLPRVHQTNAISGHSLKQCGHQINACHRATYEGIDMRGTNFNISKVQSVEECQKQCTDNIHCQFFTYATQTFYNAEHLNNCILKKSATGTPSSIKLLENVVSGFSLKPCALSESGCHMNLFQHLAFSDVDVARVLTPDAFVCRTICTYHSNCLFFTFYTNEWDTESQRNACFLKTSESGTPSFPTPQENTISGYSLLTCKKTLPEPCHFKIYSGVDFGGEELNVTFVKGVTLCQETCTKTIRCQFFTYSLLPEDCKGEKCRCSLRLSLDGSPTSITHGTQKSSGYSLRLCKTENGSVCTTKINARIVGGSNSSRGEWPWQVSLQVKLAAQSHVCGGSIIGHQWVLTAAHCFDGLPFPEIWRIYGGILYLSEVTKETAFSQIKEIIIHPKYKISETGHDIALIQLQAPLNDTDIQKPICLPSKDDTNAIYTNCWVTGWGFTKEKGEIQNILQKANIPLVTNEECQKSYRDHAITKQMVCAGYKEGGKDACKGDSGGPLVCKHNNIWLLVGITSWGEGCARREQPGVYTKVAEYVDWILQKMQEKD
rat plasma kallikrein, sequence (P14272 20-638 limits assumed): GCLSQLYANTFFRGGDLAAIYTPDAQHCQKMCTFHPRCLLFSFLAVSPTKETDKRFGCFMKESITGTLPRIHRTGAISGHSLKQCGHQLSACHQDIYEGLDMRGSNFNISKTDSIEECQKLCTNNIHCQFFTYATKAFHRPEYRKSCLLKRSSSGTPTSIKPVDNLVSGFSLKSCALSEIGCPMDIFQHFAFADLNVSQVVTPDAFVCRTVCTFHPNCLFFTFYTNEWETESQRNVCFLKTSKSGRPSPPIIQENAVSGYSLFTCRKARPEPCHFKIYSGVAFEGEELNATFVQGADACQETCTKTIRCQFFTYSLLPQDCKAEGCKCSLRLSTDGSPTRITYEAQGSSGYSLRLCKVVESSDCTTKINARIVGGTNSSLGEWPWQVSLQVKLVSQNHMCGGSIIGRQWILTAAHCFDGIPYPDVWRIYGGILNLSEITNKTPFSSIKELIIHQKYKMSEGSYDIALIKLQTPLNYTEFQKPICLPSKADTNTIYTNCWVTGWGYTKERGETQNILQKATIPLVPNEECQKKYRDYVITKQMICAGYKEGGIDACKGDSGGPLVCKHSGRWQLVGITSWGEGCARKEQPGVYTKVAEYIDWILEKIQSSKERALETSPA

B1: MAb1 (antibody, V domains shown)
VH: QVQLQQSGAELVKPGASVKISCKASGYAFSSYWMNWVKQRPGEGLEWIGQIYPGDDDTNYNGKFKGKATLTVDKSSTTAYMQLSSLTSEDSAVYFCAGSLMVTTGAPFDYWGQGTTLTVSS
VL: DIVMTQSHKFMSTSVGDRVSITCKASQDVGIAVAWYQQKPGQSPKFLIYWASTRHTGVPDRFTGSGSGTDFTLTIRNVQSEDLSDYFCQQYRSYPLTFGSGTKLELK
For B1, in [1], the “IC50 (read off the curve), lower panel, 10 nM pKal” value is approximately 8e-09 M and the “IC50 (read off the curve), upper panel, 1 nM pKal” value was approximately 1e-09 M. Moreover, the “IC50 (read off the curve)” value in test [2] is approximately 0.001 µM.

B2: MAb4-YTE (antibody, human IgG1, kappa)
heavy: QVQLVQSGAEVKKPGSSVKVSCKASGYAFSSYWMNWVRQAPGQGLEWIGQIYPGDDDTNYNAKFQGRVTITVDKSTTTAYMELSSLRSEDTAVYFCAGSLMVTTGAPFDYWGQGTTVTVSSASTKGPSVFPLAPSSKSTSGGTAALGCLVKDYFPEPVTVSWNSGALTSGVHTFPAVLQSSGLYSLSSVVTVPSSSLGTQTYICNVNHKPSNTKVDKRVEPKSCDKTHTCPPCPAPELLGGPSVFLFPPKPKDTLYITREPEVTCVVVDVSHEDPEVKFNWYVDGVEVHNAKTKPREEQYNSTYRVVSVLTVLHQDWLNGKEYKCKVSNKALPAPIEKTISKAKGQPREPQVYTLPPSREEMTKNQVSLTCLVKGFYPSDIAVEWESNGQPENNYKTTPPVLDSDGSFFLYSKLTVDKSRWQQGNVFSCSVMHEALHNHYTQKSLSLSPG
light: DIQMTQSPSSLSASVGDRVTITCKASQDVGIAVAWYQQKPGKAPKFLIYYASHRGWGVPDRFSGSGSGTDFTLTISSLQPEDFATYFCQQYRSYPLTFGQGTKLEIKRTVAAPSVFIFPPSDEQLKSGTASVVCLLNNFYPREAKVQWKVDNALQSGNSQESVTEQDSKDSTYSLSSTLTLSKADYEKHKVYACEVTHQGLSSPVTKSFNRGEC
notes: also called Mab-YTE
As usually defined, the Kd is the constant that tells how readily two partners part at equilibrium. Usually koff stands for a measure of how fast the partners let go of each other. A word on the kon: it is the second-order rate constant of association. As for B2, the Kd was found to be 0.15 µM in [3]; 0.67 µM in test [5]; 0.0011 µM in test [12]; 0.0009 µM in test [14]; 1.3 µM in test [15]. In addition, the koff in test [3] came to 0.0277 s⁻¹; in test [5] it was 0.022 s⁻¹; in test [6] it was 7.7e-05 s⁻¹; in test [12] it was 7.3e-05 s⁻¹; in [15], 0.025 s⁻¹. In addition, the kon in test [3] was found to be 184000 M⁻¹ s⁻¹; in test [5] it was 34000 M⁻¹ s⁻¹; in test [6] it was 86000 M⁻¹ s⁻¹; in [12] it was 69000 M⁻¹ s⁻¹; in test [15] it was 19000 M⁻¹ s⁻¹. Further, in test [4], the “fold higher potency than DX-2930, HMWK functional assay” value was approximately 10 fold. In test [7], the “fold higher affinity for plasma kallikrein than prekallikrein” value (“fold higher affinity” for short) was more than 1000 fold. The “IC50, inhibition of pKal (1 nM) enzymatic activity on PFR-AMC” value was determined as 352 pM in [8], 223 pM in [9], 167 pM in [10] and 290 pM in [11]. Further, the “IC50 (read off the curve), lower panel” value in test [13] is approximately 0.02 µM. For the same molecule, the “IC50 (read off the curve), upper panel, 30 nM pKal, 600 nM HMWK” value in [13] is approximately 20 nM.

B3: MAb4 (antibody, human IgG1, kappa)
heavy: not shown
light: B2 light
notes: Full length human IgG1 kappa; also called unmodified MAb4; parental MAb4
Regarding B3, in test [16], the Kd came out at 0.848 µM, the koff was found to be 0.229 s⁻¹ and the kon came out at 270000 M⁻¹ s⁻¹. Further, the “IC50 (read off the curve), lower panel” value in test [13] was approximately 0.02 µM.

B4: MAb4-LS (antibody, human IgG1, kappa)
heavy: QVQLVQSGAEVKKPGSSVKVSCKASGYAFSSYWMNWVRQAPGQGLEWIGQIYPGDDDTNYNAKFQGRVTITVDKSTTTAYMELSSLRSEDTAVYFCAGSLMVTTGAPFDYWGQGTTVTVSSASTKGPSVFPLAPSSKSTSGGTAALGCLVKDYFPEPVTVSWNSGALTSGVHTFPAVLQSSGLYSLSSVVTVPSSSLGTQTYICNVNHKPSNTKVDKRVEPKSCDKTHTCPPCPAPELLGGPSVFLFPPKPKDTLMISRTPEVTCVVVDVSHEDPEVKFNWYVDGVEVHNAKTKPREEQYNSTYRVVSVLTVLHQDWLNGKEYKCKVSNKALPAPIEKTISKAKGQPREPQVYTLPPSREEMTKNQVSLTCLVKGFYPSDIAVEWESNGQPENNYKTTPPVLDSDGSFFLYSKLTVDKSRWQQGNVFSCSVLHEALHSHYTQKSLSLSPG
light: B2 light
notes: Human IgG1 kappa
Take B4: the equilibrium dissociation constant (Kd) in test [17] was 0.67 µM; in test [18], 0.0022 µM; in test [20], 1.3 µM; in test [21] it was 0.105 µM; in test [14], 0.0012 µM. The koff worked out at 0.023 s⁻¹ in [17]; 0.000101 s⁻¹ in test [19]; 0.024 s⁻¹ in [20]; 0.031 s⁻¹ in [21]; 8.6e-05 s⁻¹ in [22]. Moreover, the kon in test [17] worked out at 34000 M⁻¹ s⁻¹; in [19] it was 83000 M⁻¹ s⁻¹; in test [20], 19000 M⁻¹ s⁻¹; in test [21], 296000 M⁻¹ s⁻¹; in test [22], 39000 M⁻¹ s⁻¹. The “fold higher affinity” value in test [7] was more than 1000 fold. Also, the “IC50 (read off the curve), lower panel” value in test [13] was approximately 0.02 µM.

B5: DX-2930 (antibody)
chain 1: not shown
chain 2: DIQMTQSPSTLSASVGDRVTITCRASQSISSWLAWYQQKPGKAPKLLIYKASTLESGVPSRFSGSGSGTEFTLTISSLQPDDFATYYCQQYNTYWTFGQGTKVEIKRTVAAPSVFIFPPSDEQLKSGTASVVCLLNNFYPREAKVQWKVDNALQSGNSQESVTEQDSKDSTYSLSSTLTLSKADYEKHKVYACEVTHQGLSSPVTKSFNRGEC
Regarding B5, the Kd stood at 0.193 µM in test [3], 0.236 µM in [23], 0.018 µM in [12] and 144 µM in [15]. The koff is 0.167 s⁻¹ in test [3], 0.0061 s⁻¹ in test [6], 0.00056 s⁻¹ in [12] and 0.05 s⁻¹ in test [15]. Moreover, the kon in [3] is 866000 M⁻¹ s⁻¹; in [6], 26000 M⁻¹ s⁻¹; in [12], 31000 M⁻¹ s⁻¹; in test [15], 600 M⁻¹ s⁻¹. Moreover, in test [7], the “fold higher affinity” value is more than 1000 fold. For the same molecule, the “IC50 (read off the curve), lower panel, 10 nM pKal” value in test [1] was approximately 3e-09 M. Further, the “fold reduction in KD at pH 6 versus pH 7.4” value in [24] is more than 10 fold. Besides, the “IC50 (read off the curve), lower panel” value in test [13] was approximately 0.03 µM. Also, in [2], the “IC50 (read off the curve)” value is approximately 0.0002 µM. The “IC50, trypsin inhibition assay (0.25 nM trypsin, PFR-AMC), Data 1” value in test [25] came out at 0.243 µM. Besides, the “IC50, trypsin inhibition assay (0.25 nM trypsin, PFR-AMC), Data 2” value in test [25] amounted to 0.376 µM.

(Values after patent publication US20240218079A1 (ASTRIA THERAPEUTICS, published 2024).)
